In the supplement of paper PMC10567573:

B1: SFRS1 (parent)
chain: YSPRRSRGSPRYSPRHSRSRSRT

Variants of: B1
Experiment: protein stability index of a GFP-peptide fusion (GPS, HEK-293T) (PSI 1-6); higher = more stable
Details: c terminus: native
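Note: lentivirally expressed fusions sorted by FACS into six bins by GFP to DsRed ratio, PSI derived from sequencing read proportions per bin multiplied by bin number.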

Row | Variant | protein stability index
1 | YSPRRSRGSPQYSPRHSRSRSRT [R11Q] | 4.39
2 | YSPRRSRGSPLYSPRHSRSRSRT [R11L] | 2.85
3 | YSPRRSRGSPSYSPRHSRSRSRT [R11S] | 3.3
4 | YSPRRSRGSPVYSPRHSRSRSRT [R11V] | 3.05
5 | YSPRRSRGSPPYSPRHSRSRSRT [R11P] | 3.44
6 | YSPRRSRGSPWYSPRHSRSRSRT [R11W] | 1.79
7 | YSPRRSRGSPGYSPRHSRSRSRT [R11G] | 3.5
8 | YSPRRSRGSPTYSPRHSRSRSRT [R11T] | 3.29
9 | YSPRRSRGSPMYSPRHSRSRSRT [R11M] | 3.47
10 | YSPRRSRGSPDYSPRHSRSRSRT [R11D] | 2.31
11 | YSPRRSRGSPKYSPRHSRSRSRT [R11K] | 3.85
12 | YSPRRSRGSPIYSPRHSRSRSRT [R11I] | 2.73
13 | YSPRRSRGSPCYSPRHSRSRSRT [R11C] | 2.36
14 | YSPRRSRGSPAYSPRHSRSRSRT [R11A] | 3.25
15 | YSPRRSRGSPFYSPRHSRSRSRT [R11F] | 2.8
16 | YSPRRSRGSPEYSPRHSRSRSRT [R11E] | 2.39
17 | YSPRRSRGSPYYSPRHSRSRSRT [R11Y] | 2.54
18 | YSPRRSRGSPHYSPRHSRSRSRT [R11H] | 3.22
19 | YSPRRSRGSPNYSPRHSRSRSRT [R11N] | 3.98
20 | YSPRRSRGSPRYSWRHSRSRSRT [P14W] | 3.22
21 | YSPRRSRGSPRYSIRHSRSRSRT [P14I] | 4.15
22 | YSPRRSRGSPRYSGRHSRSRSRT [P14G] | 4.46
23 | YSPRRSRGSPRYSNRHSRSRSRT [P14N] | 4.28
24 | YSPRRSRGSPRYSLRHSRSRSRT [P14L] | 3.56
25 | YSPRRSRGSPRYSVRHSRSRSRT [P14V] | 4.03

Row | Variant | protein stability index
26 | YSPRRSRGSPRYSRRHSRSRSRT [P14R] | 4.48
27 | YSPRRSRGSPRYSYRHSRSRSRT [P14Y] | 3.64
28 | YSPRRSRGSPRYSSRHSRSRSRT [P14S] | 3.54
29 | YSPRRSRGSPRYSHRHSRSRSRT [P14H] | 4.16
30 | YSPRRSRGSPRYSDRHSRSRSRT [P14D] | 3.46
31 | YSPRRSRGSPRYSKRHSRSRSRT [P14K] | 4.57
32 | YSPRRSRGSPRYSCRHSRSRSRT [P14C] | 1.97
33 | YSPRRSRGSPRYSARHSRSRSRT [P14A] | 4.03
34 | YSPRRSRGSPRYSFRHSRSRSRT [P14F] | 3.21
35 | YSPRRSRGSPRYSMRHSRSRSRT [P14M] | 3.52
36 | YSPRRSRGSPRYSERHSRSRSRT [P14E] | 4.04
37 | YSPRRSRGSPRYSTRHSRSRSRT [P14T] | 3.89
38 | YSPRRSRGSPRYNPRHSRSRSRT [S13N] | 3.64
39 | YSPRRSRGSPRYTPRHSRSRSRT [S13T] | 3.63
40 | YSPRRSRGSPRYKPRHSRSRSRT [S13K] | 4.64
41 | YSPRRSRGSPRYMPRHSRSRSRT [S13M] | 3.82
42 | YSPRRSRGSPRYIPRHSRSRSRT [S13I] | 3.71
43 | YSPRRSRGSPRYGPRHSRSRSRT [S13G] | 4.41
44 | YSPRRSRGSPRYVPRHSRSRSRT [S13V] | 3.37
45 | YSPRRSRGSPRYCPRHSRSRSRT [S13C] | 1.35
46 | YSPRRSRGSPRYAPRHSRSRSRT [S13A] | 3.41
47 | YSPRRSRGSPRYLPRHSRSRSRT [S13L] | 3.89
48 | YSPRRSRGSPRYYPRHSRSRSRT [S13Y] | 3.13
49 | YSPRRSRGSPRYPPRHSRSRSRT [S13P] | 3.55
50 | YSPRRSRGSPRYDPRHSRSRSRT [S13D] | 3.72

Row | Variant | protein stability index
51 | YSPRRSRGSPRYFPRHSRSRSRT [S13F] | 3.59
52 | YSPRRSRGSPRYWPRHSRSRSRT [S13W] | 2.9
53 | YSPRRSRGSPRYHPRHSRSRSRT [S13H] | 3.62
54 | YSPRRSRGSPRYRPRHSRSRSRT [S13R] | 4.11
55 | YSPRRSRGSPRYQPRHSRSRSRT [S13Q] | 3.76
56 | YSPRRSRGSPRYEPRHSRSRSRT [S13E] | 4.01
57 | YSPRYSRGSPRYSPRHSRSRSRT [R5Y] | 3.01
58 | YSPRSSRGSPRYSPRHSRSRSRT [R5S] | 3.76
59 | YSPRVSRGSPRYSPRHSRSRSRT [R5V] | 2.87
60 | YSPRTSRGSPRYSPRHSRSRSRT [R5T] | 2.8
61 | YSPRWSRGSPRYSPRHSRSRSRT [R5W] | 1.84
62 | YSPRRSRGSPRCSPRHSRSRSRT [Y12C] | 3.61
63 | YSPRRSRGSPRVSPRHSRSRSRT [Y12V] | 4.18
64 | YSPRRSRGSPRRSPRHSRSRSRT [Y12R] | 4.25
65 | YSPRRSRGSPRKSPRHSRSRSRT [Y12K] | 3.73
66 | YSPRRSRGSPRWSPRHSRSRSRT [Y12W] | 4.43
67 | YSPRRSRGSPRNSPRHSRSRSRT [Y12N] | 4.21
68 | YSPRRSRGSPRHSPRHSRSRSRT [Y12H] | 3.28
69 | YSPRRSRGSPRMSPRHSRSRSRT [Y12M] | 3.62
70 | YSPRRSRGSPRLSPRHSRSRSRT [Y12L] | 4.03
71 | YSPRRSRGSPRFSPRHSRSRSRT [Y12F] | 3.7
72 | YSPRRSRGSPRTSPRHSRSRSRT [Y12T] | 4.27
73 | YSPRRSRGSPRDSPRHSRSRSRT [Y12D] | 4.38
74 | YSPRRSRGSPRQSPRHSRSRSRT [Y12Q] | 4.43
75 | YSPRRSRGSPRASPRHSRSRSRT [Y12A] | 3.89

Row | Variant | protein stability index
76 | YSPRRSRGSPRISPRHSRSRSRT [Y12I] | 3.72
77 | YSPRRSRGSPRESPRHSRSRSRT [Y12E] | 4.47
78 | YSPRRSRGSPRSSPRHSRSRSRT [Y12S] | 4.17
79 | YSPRRSRGSPRPSPRHSRSRSRT [Y12P] | 3.99
80 | YSPRRQRGSPRYSPRHSRSRSRT [S6Q] | 4.33
81 | YSPRRLRGSPRYSPRHSRSRSRT [S6L] | 2.65
82 | YSPRRNRGSPRYSPRHSRSRSRT [S6N] | 3.97
83 | YSPRRHRGSPRYSPRHSRSRSRT [S6H] | 3.66
84 | YSPRRCRGSPRYSPRHSRSRSRT [S6C] | 2.81
85 | YSPRRWRGSPRYSPRHSRSRSRT [S6W] | 3.43
86 | YSPRRMRGSPRYSPRHSRSRSRT [S6M] | 3.56
87 | YSPRRARGSPRYSPRHSRSRSRT [S6A] | 4.13
88 | YSPRRYRGSPRYSPRHSRSRSRT [S6Y] | 3.29
89 | YSPRRDRGSPRYSPRHSRSRSRT [S6D] | 3.83
90 | YSPRRTRGSPRYSPRHSRSRSRT [S6T] | 4.02
91 | YSPRRGRGSPRYSPRHSRSRSRT [S6G] | 3.55
92 | YSPRRVRGSPRYSPRHSRSRSRT [S6V] | 3.09
93 | YSPRRPRGSPRYSPRHSRSRSRT [S6P] | 4.39
94 | YSPRRIRGSPRYSPRHSRSRSRT [S6I] | 3.22
95 | YSPRRERGSPRYSPRHSRSRSRT [S6E] | 3.26
96 | YSPRRFRGSPRYSPRHSRSRSRT [S6F] | 3.27
97 | YSPRRKRGSPRYSPRHSRSRSRT [S6K] | 3.01
